Substitutions are numbered along the chain they refer to. In names and notes the source's numbering stands.

These results are taken from PMC6599887, “Exploration of the TRIM Fold of MuRF1 Using EPR Reveals a Canonical Antiparallel Structure and Extended COS-Box” (Journal of Molecular Biology, 2019).

To fix the notation:
B1: MuRF1-HD F163C/L276C (in cysteine-null background) (domain or fragment, UniProt Q969Q1 155-328, looked up)
chain: EVAPLQSVCQGQKTELNNSISMLVAGNDRVQTIITQLEDSRRVTKENSHQVKEELSQKFDTLYAILDEKKSELLQRITQEQEKKLSFIEALIQQYQEQLDKSTKLVETAIQSLDEPGGATFCLTAKQLIKSIVEASKGSQLGKTEQGFENMDFFTLDLEHIADALRAIDFGTDE
modifications: disulfide bonds between the introduced cysteines after spontaneous oxidation
notes: MuRF1 (TRIM63) helical domain, residues 155-328 of UniProtKB Q969Q1; not shown: His6, N-terminal, cleaved; SUMO, N-terminal, cleaved
B2: MuRF1-HD V184C/L253C (in cysteine-null background) (domain or fragment, UniProt Q969Q1 155-328, looked up)
chain: B1 chain with C9F, V30C, L99C, C122L
modifications: disulfide bonds between the introduced cysteines after spontaneous oxidation
notes: as for B1
B3: MuRF1-HD S202C/Q235C (in cysteine-null background) (domain or fragment, UniProt Q969Q1 155-328, looked up)
chain: B1 chain with C9F, S48C, Q81C, C122L
modifications: disulfide bonds between the introduced cysteines after spontaneous oxidation
notes: as for B1
B4: MuRF1-HD E243C (cysteine-null background), MTSSL-labelled (domain or fragment, UniProt Q969Q1 155-328, looked up)
chain: B1 chain with C9F, E89C, C122L
modifications: MTSSL spin label (R1) on cysteine 243
notes: MuRF1 (TRIM63) helical domain, residues 155-328 of UniProtKB Q969Q1; also called E243R1; not shown: His6, N-terminal, cleaved; SUMO, N-terminal, cleaved
B5: MuRF1-HD R320C (cysteine-null background), MTSSL-labelled (domain or fragment, UniProt Q969Q1 155-328, looked up)
chain: B1 chain with C9F, C122L, R166C
modifications: MTSSL spin label (R1) on cysteine 320
notes: MuRF1 (TRIM63) helical domain, residues 155-328 of UniProtKB Q969Q1; also called R320R1; E320R1 (as printed once); not shown: His6, N-terminal, cleaved; SUMO, N-terminal, cleaved
B6: MuRF1-HD R230C (cysteine-null background), MTSSL-labelled (domain or fragment, UniProt Q969Q1 155-328, looked up)
chain: B1 chain with C9F, R76C, C122L
modifications: MTSSL spin label (R1) on cysteine 230
notes: MuRF1 (TRIM63) helical domain, residues 155-328 of UniProtKB Q969Q1; also called R230R1; not shown: His6, N-terminal, cleaved; SUMO, N-terminal, cleaved
B7: MuRF1-HD K297C (cysteine-null background), MTSSL-labelled (domain or fragment, UniProt Q969Q1 155-328, looked up)
chain: B1 chain with C9F, C122L, K143C
modifications: MTSSL spin label (R1) on cysteine 297
notes: MuRF1 (TRIM63) helical domain, residues 155-328 of UniProtKB Q969Q1; also called K297R1; not shown: His6, N-terminal, cleaved; SUMO, N-terminal, cleaved
B8: MuRF1-HD E313C (cysteine-null background), MTSSL-labelled (domain or fragment, UniProt Q969Q1 155-328, looked up)
chain: B1 chain with C9F, C122L, E159C
modifications: MTSSL spin label (R1) on cysteine 313
notes: MuRF1 (TRIM63) helical domain, residues 155-328 of UniProtKB Q969Q1; also called E313R1; not shown: His6, N-terminal, cleaved; SUMO, N-terminal, cleaved
B9: MuRF1-HD E222C (cysteine-null background), MTSSL-labelled (domain or fragment, UniProt Q969Q1 155-328, looked up)
chain: B1 chain with C9F, E68C, C122L
modifications: MTSSL spin label (R1) on cysteine 222
notes: MuRF1 (TRIM63) helical domain, residues 155-328 of UniProtKB Q969Q1; also called E222R1; not shown: His6, N-terminal, cleaved; SUMO, N-terminal, cleaved
B10: MuRF1-HD E192C (cysteine-null background), MTSSL-labelled (domain or fragment, UniProt Q969Q1 155-328, looked up)
chain: B1 chain with C9F, E38C, C122L
modifications: MTSSL spin label (R1) on cysteine 192
notes: MuRF1 (TRIM63) helical domain, residues 155-328 of UniProtKB Q969Q1; also called E192R1; not shown: His6, N-terminal, cleaved; SUMO, N-terminal, cleaved
B11: MuRF1-HD E200C (cysteine-null background), MTSSL-labelled (domain or fragment, UniProt Q969Q1 155-328, looked up)
chain: B1 chain with C9F, E46C, C122L
modifications: MTSSL spin label (R1) on cysteine 200
notes: MuRF1 (TRIM63) helical domain, residues 155-328 of UniProtKB Q969Q1; also called E200R1; not shown: His6, N-terminal, cleaved; SUMO, N-terminal, cleaved
B12: MuRF1-HD K212C (cysteine-null background), MTSSL-labelled (domain or fragment, UniProt Q969Q1 155-328, looked up)
chain: B1 chain with C9F, K58C, C122L
modifications: MTSSL spin label (R1) on cysteine 212
notes: MuRF1 (TRIM63) helical domain, residues 155-328 of UniProtKB Q969Q1; also called K212R1; not shown: His6, N-terminal, cleaved; SUMO, N-terminal, cleaved
B13: MuRF1-HD doubly labelled at E192R1 and R320R1 (cysteine-null background) (domain or fragment, UniProt Q969Q1 155-328, looked up)
chain: B1 chain with C9F, E38C, C122L, R166C
modifications: MTSSL spin label (R1) on cysteines 192 and 320
notes: MuRF1 (TRIM63) helical domain, residues 155-328 of UniProtKB Q969Q1; The double mutant is told only as labels placed at E192R1 and R320R1 simultaneously; the cysteine-null background follows from the methods; also called double-labeled sample; not shown: His6, N-terminal, cleaved; SUMO, N-terminal, cleaved

The first series deals with the molecule itself. Put plainly: cross-linking; zero-length disulfide cross-linking by spontaneous oxidation: 20 uM protein reduced in 50 mM Tris-HCl pH 8.0, 100 mM NaCl, 20 mM beta-mercaptoethanol, dialysed overnight at 4 °C into the same buffer without reducing agent; non-reducing against reducing SDS-PAGE, Coomassie staining.
As to B1, the “stoichiometry N” value came to 2.

For B2, the “stoichiometry N” value is 2.

Take B3: the “stoichiometry N” value stood at 2.

The next series concerns the molecule itself. Nature of the series: PELDOR (pulsed EPR, DEER); MTSSL-labelled protein, 100 to 200 uM MuRF1 dimer, deuterated Hepes pH 8.0/NaCl buffer mixed 1:1 with D8-glycerol, flash frozen; Q-band, 50 K; distances between labels across the protomers of the dimer.
Take B4: the binding result is “binds”.

As to B5, the binding result is listed as “binds”.

For the protein B6, the binding result is recorded as “binds”.

As to B7, the binding result is “binds”.

In the case of B8, the binding result is “binds”.

Take B9: the binding result was “binds”.

Turning to B10, the binding result was “binds”.

Turning to B11, the binding result is “binds”.

Regarding B12, the binding result is “binds”.

As for B13, the binding result is “binds”.

Usually stoichiometry N stands for the number of molecules, sites or subunits per partner or assembly.
